In experiment [1] the target is T1, human TNFR1 on Kym-1, HeLa and HT1080 cells (human, UniProt P19438 30-455).
T1 sequence (looked up): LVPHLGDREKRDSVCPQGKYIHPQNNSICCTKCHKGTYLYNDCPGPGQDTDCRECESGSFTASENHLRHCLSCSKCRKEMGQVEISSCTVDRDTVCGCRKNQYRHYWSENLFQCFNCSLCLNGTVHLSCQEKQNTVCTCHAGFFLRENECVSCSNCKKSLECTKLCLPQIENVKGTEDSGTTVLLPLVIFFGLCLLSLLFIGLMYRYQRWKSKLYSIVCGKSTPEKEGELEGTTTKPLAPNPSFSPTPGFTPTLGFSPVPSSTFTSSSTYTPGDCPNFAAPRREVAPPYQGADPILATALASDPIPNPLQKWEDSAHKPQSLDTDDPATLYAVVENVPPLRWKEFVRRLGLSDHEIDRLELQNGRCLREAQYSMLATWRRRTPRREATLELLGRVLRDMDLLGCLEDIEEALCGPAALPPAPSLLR
Nature of the experiment: cell-based or functional assay.

Experiment [2] addresses T2, human TNFR1-Fas on transfected mouse embryonic fibroblasts (human, UniProt P19438 30-211; P25445 191-335, limits assumed).
T2 construct: extracellular domain;domain: intracellular domain; also called MEF-TNFR1-Fas
T2 sequence (looked up): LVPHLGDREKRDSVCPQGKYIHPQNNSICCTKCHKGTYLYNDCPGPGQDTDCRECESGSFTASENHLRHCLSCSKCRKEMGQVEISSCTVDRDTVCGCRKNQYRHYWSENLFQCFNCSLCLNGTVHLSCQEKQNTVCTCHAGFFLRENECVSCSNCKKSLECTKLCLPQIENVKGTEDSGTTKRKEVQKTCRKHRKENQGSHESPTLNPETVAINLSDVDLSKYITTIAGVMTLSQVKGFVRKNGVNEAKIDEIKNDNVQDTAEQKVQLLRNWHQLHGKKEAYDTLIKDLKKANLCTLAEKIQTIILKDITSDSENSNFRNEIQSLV
Nature of the experiment: flow cytometry, titration on MEF-TNFR1-Fas cells. The procedure:
(§1) Binding to TNFR1-Fas or TNFR2-Fas transfected MEF cells was analyzed by flow cytometry. Cells (2×105) were incubated with dilution series of antibodies for 4 h at 4° C. Cells were then washed with PBS and bound antibodies were detected with PE-labeled goat anti-mouse or anti-human antibody. Cells were analyzed by flow cytometry (Cytomics FC 500, Beckmann-Coulter, Krefeld, Germany). Data were evaluated with the program WinMDI, version 2.9, and fitted with GraphPrism software (La Jolla, USA) from 3 independent binding curves.
For orientation: In flow cytometry, cells or beads pass a laser one at a time.

In the next experiment the target is T3, human TNFR1-Fc (human, UniProt P19438 29-211).
T3 construct: range 29-211; also called huTNFR1-Fc; recombinant human TNFR1-Fc fusion protein; not shown: human IgG1 Fc region (vector pSecTagL1-Fc)
T3 sequence (looked up): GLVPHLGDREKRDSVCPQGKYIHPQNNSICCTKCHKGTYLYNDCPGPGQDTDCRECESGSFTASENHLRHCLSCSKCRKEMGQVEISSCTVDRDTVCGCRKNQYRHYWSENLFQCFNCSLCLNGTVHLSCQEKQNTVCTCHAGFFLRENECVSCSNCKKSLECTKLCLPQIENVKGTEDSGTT
Put plainly: quartz crystal microbalance, TNFR1-Fc immobilized. The procedure:
(§2) Affinities of the antibodies were determined by quartz crystal microbalance measurements (QCM; Attana A-100 C-Fast system, Stockholm, Sweden). Binding experiments were performed in PBS 0.005% Tween 20 at a flow rate of 25 to 35 μl/min and temperature was controlled at 20° C. The TNFR1-Fc fusion proteins were chemically immobilized on an Attana carboxyl sensor chip by amine coupling at a concentration of 50 μg/ml according to the manufacturer's protocol resulting in a signal increase (frequency shift) of approximately 200 Hz. Antibodies were analyzed at concentration between 62.5 and 3.9 nM (4 measurements per concentration). The chip was regenerated with 10 mM glycine-HCl, pH 3.0. Buffer injections were performed prior to each sample injection to use as a reference in Attester Evaluation. Data were collected by Attester 3.0 (Version 3.1.1.8, Attana, Stockholm, Sweden) and analyzed by ClampXP (Myszka and Morton 1998). A mass transport model (Myszka 1997) was fitted to the data.

A further experiment has as its target T4, rhesus TNFR1-Fc (rhesus; human, UniProt A0A1D5QSM0 27-209).
T4 construct: range 27-209; also called rheTNFR1-Fc; not shown: Fc of vector pSecTagL1-Fc (human IgG1 Fc is stated for the human TNFR1-Fc)
T4 sequence: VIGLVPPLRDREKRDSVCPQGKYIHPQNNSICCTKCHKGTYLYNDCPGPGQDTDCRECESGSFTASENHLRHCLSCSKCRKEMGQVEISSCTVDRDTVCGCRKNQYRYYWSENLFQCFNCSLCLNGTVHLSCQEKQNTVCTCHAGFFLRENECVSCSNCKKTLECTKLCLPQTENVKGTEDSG
Nature of the experiment: quartz crystal microbalance, TNFR1-Fc immobilized. The procedure: as §2

The target of experiment [3] is T5, chimeric human/mouse TNFR1-Fc construct 4 (human CRD1 substituted by the mouse domain) (mouse; human, UniProt P25118 30-82; P19438 83-211, limits assumed).
T5 construct: not shown: Fc of vector pSecTagL1-Fc
T5 sequence (looked up): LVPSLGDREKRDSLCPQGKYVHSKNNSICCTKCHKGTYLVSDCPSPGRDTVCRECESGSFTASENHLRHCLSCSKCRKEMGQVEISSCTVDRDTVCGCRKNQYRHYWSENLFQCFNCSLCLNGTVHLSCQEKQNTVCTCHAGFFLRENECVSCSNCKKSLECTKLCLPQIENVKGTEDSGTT
Put plainly: ELISA on chimeric TNFR1-Fc. The procedure: (§3) Antibodies (0.1 nM) were analyzed by ELISA for binding to the TNFR1-Fc fusion proteins. […] Cysteine residues are marked with grey boxes and the 2 positions (P23, Q24) analyzed by site-directed mutagenesis are marked by asterisks.
(In general: An ELISA detects its analyte on a solid surface through an enzyme-linked reagent.)

The target of experiment [4] is T6, chimeric human/mouse TNFR1-Fc construct 5 (A1 domain of CRD1 of human TNFR1 exchanged with the mouse sequence) (mouse; human, UniProt P25118 30-58; P19438 59-211, limits assumed).
T6 construct: not shown: Fc of vector pSecTagL1-Fc
T6 sequence (looked up): T5 sequence (looked up) with V40Y, S41N, S45G, R48Q, V51D
Put plainly: ELISA on chimeric TNFR1-Fc. The procedure:
as §3

Experiment [5] concerns the target T7, chimeric human/mouse TNFR1-Fc construct 3 (human CRD1 and 2 substituted by the mouse domains) (mouse; human, UniProt P25118 30-125; P19438 126-211, limits assumed).
T7 construct: not shown: Fc of vector pSecTagL1-Fc
T7 sequence (looked up): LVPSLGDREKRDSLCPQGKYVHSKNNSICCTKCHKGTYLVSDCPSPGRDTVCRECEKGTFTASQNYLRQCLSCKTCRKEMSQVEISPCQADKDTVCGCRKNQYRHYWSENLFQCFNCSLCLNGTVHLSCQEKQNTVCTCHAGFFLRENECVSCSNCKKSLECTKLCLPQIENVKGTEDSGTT
Nature of the experiment: ELISA on chimeric TNFR1-Fc. The procedure:
as §3

A further experiment addresses T8, mouse TNFR1-Fc (mouse; human, UniProt P25118 30-212).
T8 construct: range 30-212; also called moTNFR1-Fc; not shown: Fc of vector pSecTagL1-Fc (human IgG1 Fc is stated for the human TNFR1-Fc)
T8 sequence (looked up): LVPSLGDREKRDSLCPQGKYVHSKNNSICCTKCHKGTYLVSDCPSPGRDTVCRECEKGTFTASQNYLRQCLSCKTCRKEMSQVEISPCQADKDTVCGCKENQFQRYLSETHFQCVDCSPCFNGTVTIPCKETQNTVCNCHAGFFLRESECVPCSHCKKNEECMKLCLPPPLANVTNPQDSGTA
Put plainly: ELISA on coated TNFR1-Fc (100 ng/well). The procedure: (100 ng/well). Binding was detected by HRP-conjugated anti-molgG (Fc-specific) antibody or anti-human Fab antibody, respectively. Binding of an anti-human Fc antibody (anti-Fc) was included as coating control.

Experiment [6] deals with T9, human TNFR2-Fas on transfected mouse embryonic fibroblasts (human, UniProt P20333 23-257; P25445 191-335, limits assumed).
T9 construct: extracellular domain;domain: intracellular domain; also called MEF-TNFR2-Fas
T9 sequence (looked up): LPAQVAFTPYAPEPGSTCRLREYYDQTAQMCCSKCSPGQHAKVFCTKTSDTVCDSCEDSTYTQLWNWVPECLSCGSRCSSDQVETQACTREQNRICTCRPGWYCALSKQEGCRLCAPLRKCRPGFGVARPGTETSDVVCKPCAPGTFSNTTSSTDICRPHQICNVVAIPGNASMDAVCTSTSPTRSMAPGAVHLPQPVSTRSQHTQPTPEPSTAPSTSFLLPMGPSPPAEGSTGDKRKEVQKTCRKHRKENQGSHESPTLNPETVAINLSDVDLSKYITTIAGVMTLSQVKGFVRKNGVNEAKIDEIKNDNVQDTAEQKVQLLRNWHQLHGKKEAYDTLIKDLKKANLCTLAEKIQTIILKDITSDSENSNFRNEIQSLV
Put plainly: flow cytometry on transfected MEF cells. The procedure: as §1

Experiment [7] has as its target T10, chimeric human/mouse TNFR1-Fc construct 8 (mouse TNFR1 with human CRD1 and sub-domain A1 of CRD2) (human; mouse, UniProt P25118 100-212, limits assumed).
T10 construct: The label hl-2A1/m2B2-4 is tied to construct 8 by inference; also called chimeric TNFR1 hl-2A1/m2B2-4; not shown: Fc of vector pSecTagL1-Fc
T10 sequence: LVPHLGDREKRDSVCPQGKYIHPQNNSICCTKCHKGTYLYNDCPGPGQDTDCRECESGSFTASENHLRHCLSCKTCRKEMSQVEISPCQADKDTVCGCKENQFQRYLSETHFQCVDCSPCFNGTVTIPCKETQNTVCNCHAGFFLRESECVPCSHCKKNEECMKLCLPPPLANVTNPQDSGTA
Put plainly: ELISA on chimeric TNFR1-Fc, antibody 0.1 nM. The procedure: as §3

Residue numbers refer to the chain shown, from its start. Numbers in names are those of the source.

B1: H398 (antibody, V domains shown)
VH: QVQLQESGAELARPGASVKLSCKASGYTFTDFYINWVKQRTGQGLEWIGEIYPYSGHAYYNEKFKAKATLTADKSSSTAFMQLNSLTSEDSAVYFCVRWDFLDYWGQGTTLTVSS
VL: DIVMTQSPLSLPVSLGDQASISCRSSQSLLHSNGNTYLHWYVQKPGQSPKLLIYTVSNRFSGVPDRFSGSGSGTDFTLKISRVEAEDLGVYFCSQSTHVPYTFGGGTKLEIK
The EC50 is the concentration that produces a half-maximal response. Low values mean higher potency in that assay, high ones lower potency in that assay. The Kd is the free concentration of one partner at which half of the binding sites on the other are occupied at equilibrium, for simple one-to-one binding. A high value points to weaker binding. For orientation: koff means the first-order rate constant of dissociation. Read a low koff as a long-lived complex. The kon is the rate constant with which the complex forms. Higher therefore signals faster complex formation. B1: in experiment [1], the “IC50, inhibition of TNF-induced IL-6 release from HeLa cells” value was 6 nM and the “IC50, inhibition of TNF-induced IL-8 release from HT1080 cells” value stood at 6 nM. The 50% effective concentration (EC50) in experiment [2] is about 0.1 nM. In the experiment with human TNFR1-Fc, binding was put at a Kd of 0.23 nM, the koff worked out at 7e-05 s⁻¹ and the kon is 310000 M⁻¹ s⁻¹. In the experiment with rhesus TNFR1-Fc, this molecule registered a dissociation constant Kd of 0.49 nM, a koff of 0.0001 s⁻¹ and a kon of 210000 M⁻¹ s⁻¹.

B2: ATROSAB (antibody, human IgG1, kappa, V domains shown)
VH: QVQLVQSGAEVKKPGSSVKVSCKASGYTFTDFYINWVRQAPGQGLEWIGEIYPYSGHAYYNEKFKARVTITADKSTSTAYMELSSLRSEDTAVYYCARWDFLDYWGQGTTVTVSS
VL: DIVMTQSPLSLPVTPGEPASISCRSSQSLLHSNGNTYLHWYLQKPGQSPQLLIYTVSNRFSGVPDRFSGSGSGTDFTLKISRVEAEDVGVYYCSQSTHVPYTFGGGTKVEIKR
notes: Humanized full-length human IgG1 made in CHO cells; Effector-deficient Fc (IgG1e3: E233P/L234V/L235A/deltaG236, A327G/A330S/P331S), allotype G1m-1,17; also called IZI-06.1 IgG; humanized H398 IgG1
With B2, the “IC50, inhibition of TNF-induced IL-6 release from HeLa cells” value in experiment [1] is 60 nM. Moreover, the “IC50, inhibition of TNF-induced IL-8 release from HT1080 cells” value in [1] was found to be 60 nM. Also, the binding result is on record as “no binding (tested: 0.1 nM)” in [3]; “no binding (tested: 0.1 nM)” in experiment [4]; “no binding (tested: 0.1 nM)” in experiment [5]; “no binding (tested: 5 ug/ml)” in the experiment with mouse TNFR1-Fc; “no binding” in [6]; “binds” in experiment [7]. Moreover, in [2], the EC50 is about 0.1 nM. Further, the equilibrium dissociation constant (Kd) with human TNFR1-Fc turned out to be 0.35 nM; in the experiment with rhesus TNFR1-Fc, 0.1 nM. Further, the dissociation rate constant (koff) came out at 0.00013 s⁻¹ with human TNFR1-Fc and 6.7e-05 s⁻¹ in the experiment with rhesus TNFR1-Fc. The results for the kon in the experiment with human TNFR1-Fc and with rhesus TNFR1-Fc were 380000 M⁻¹ s⁻¹ and 690000 M⁻¹ s⁻¹, respectively.

(Values after US20130251707A1 (BALIOPHARM, published 2013).)
